Test results: patent US20250032576A1, “CNP Therapy” (BIOMARIN PHARMACEUTICAL INC., priority 2021, published 2025)
Where a chain is given by its changes, count along the chain named.

B1: Trp42Arg: NPR2 protein-altering variant, expression construct transfected into HEK293 cells (protein)
chain: RNLTLAVVLPEHNLSYAWARPRVGPAVALAVEALGRALPVDLRFVSSELEGACSEYLAPLSAVDLKLYHDPDLLLGPGCVYPAASVARFASHWRLPLLTAGAVASGFSAKNDHYRTLVRTGPSAPKLGEFVVTLHGHFNWTARAALLYLDARTDDRPHYFTIEGVFEALQGSNLSVQHQVYAREPGGPEQATHFIRANGRIVYICGPLEMLHEILLQAQRENLTNGDYVFFYLDVFGESLRAGPTRATGRPWQDNRTREQAQALREAFQTVLVITYREPPNPEYQEFQNRLLIRAREDFGVELGPSLMNLIAGCFYDGILLYAEVLNETIQEGGTREDGLRIVEKMQGRRYHGVTGLVVMDKNNDRETDFVLWAMGDLDSGDFQPAAHYSGAEKQIWWTGRPIPWVKGAPPSDNPPCAFDLDDPSCDKTPLSTLAIVALGTGITFIMFGVSSFLIFRKLMLEKELASMLWRIRWEELQFGNSERYHKGAGSRLTLSLRGSSYGSLMTAHGKYQIFANTGHFKGNVVAIKHVNKKRIELTRQVLFELKHMRDVQFNHLTRFIGACIDPPNICIVTEYCPRGSLQDILENDSINLDWMFRYSLINDLVKGMAFLHNSIISSHGSLKSSNCVVDSRFVLKITDYGLASFRSTAEPDDSHALYAKKLWTAPELLSGNPLPTTGMQKADVYSFGIILQEIALRSGPFYLEGLDLSPKEIVQKVRNGQRPYFRPSIDRTQLNEELVLLMERCWAQDPAERPDFGQIKGFIRRFNKEGGTSILDNLLLRMEQYANNLEKLVEERTQAYLEEKRKAEALLYQILPHSVAEQLKRGETVQAEAFDSVTIYFSDIVGFTALSAESTPMQVVTLLNDLYTCFDAIIDNFDVYKVETIGDAYMVVSGLPGRNGQRHAPEIARMALALLDAVSSFRIRHRPHDQLRLRIGVHTGPVCAGVVGLKMPRYCLFGDTVNTASRMESNGQALKIHVSSTTKDALDELGCFQLELRGDVEMKGKGKMRTYWLLGERKGPPGLL
B2: Glu77Lys: NPR2 protein-altering variant, expression construct transfected into HEK293 cells (protein)
chain: B1 chain with R20W, E55K
B3: Ile494Ser: NPR2 protein-altering variant, expression construct transfected into HEK293 cells (protein)
chain: B1 chain with R20W, I472S
B4: Lys1006Thr: NPR2 protein-altering variant, expression construct transfected into HEK293 cells (protein)
chain: B1 chain with R20W, K984T
B5: Ser522Pro: NPR2 protein-altering variant, expression construct transfected into HEK293 cells (protein)
chain: B1 chain with R20W, S500P
B6: Thr297Met: NPR2 protein-altering variant, expression construct transfected into HEK293 cells (protein)
chain: B1 chain with R20W, T275M
B7: Arg601Ser: NPR2 protein-altering variant, expression construct transfected into HEK293 cells (protein)
chain: B1 chain with R20W, R579S

Test system: NPR2
Experiment: cGMP catchpoint assay of NPR2 variants in transfected HEK293 cells treated with 20 nM CNP
Format: cell-based
Set-up: key to Lable: loss-of-function (LoF); Gain-of-function (GoF)
Conditions: cGMP normalized to RedLuciferase and to WT = 1; HEK293, 20 nM CNP, 0.4 nM IBMX; at least 3 repeat experiments with 4 replicates each
Experimental: Described herein is an in-vitro assay (cGMP) to assess the activities of >260 NPR2 variants. NPR2 protein-altering variants have been identified in the UK Biobank study and described in Estrada et al. (Nat Commun. 2021 12 (1): 2224). NPR2-expression constructs were transfected into HEK293 cells and 3 days later cells were treated with […] IBMX and 20 nM CNP in serum-free DMEM prior to measuring cGMP levels. The cGMP catchpoint ELISA competition assay (Molecular Devices) was used to measure cGMP according to manufacturer recommendations. RedLuc was used as a transfection control (FIG. 8A).
The NPR2 alpha-fold structure was obtained from a recent alpha-fold publication (Jumper et al., Nature 596:583-589 (2021)). A list of phenotypically characterized “high-confidence” variants was generated (Table 4). Phenotype is calculated by determining levels of cGMP using a standard curve. This value to normalized to RedLuciferase (transfection control). This value is further normalized by setting WT to 1. Average value is calculated from at least 3 repeat experiments with 4 replicates each.

Row | Molecule | average phenotype
1 | B1 | 0.0288
2 | B2 | 0.04986
3 | B3 | 0.03638
4 | B4 | 0.0551
5 | B5 | 0.05673
6 | B6 | 0.03025
7 | B7 | 0.05949

Same assay, conditions: high-confidence variant class

Row | Molecule | Lable
8 | B1 | LoF
9 | B2 | LoF
10 | B3 | LoF
11 | B4 | LoF
12 | B5 | LoF
13 | B6 | LoF
14 | B7 | LoF
